Laboratory results from patent US20180333502A1 (published 2018).

T1: human GITR on cells (activated human T cells; 3A9-hGITR cells) (human, UniProt Q9Y5U5 26-241)
T1 chain: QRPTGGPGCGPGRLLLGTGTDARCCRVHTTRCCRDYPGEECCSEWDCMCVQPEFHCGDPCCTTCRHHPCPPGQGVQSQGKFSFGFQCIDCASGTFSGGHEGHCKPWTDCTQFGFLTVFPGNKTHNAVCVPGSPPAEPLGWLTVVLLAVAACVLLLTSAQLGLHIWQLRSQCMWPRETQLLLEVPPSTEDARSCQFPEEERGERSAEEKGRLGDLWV


Target: T1, human GITR on cells (activated human T …)
Experiment: FACS binding to activated human CD4 T cells

EC50 [nM]	Binder
0.163	anti-GITR-IgG2-IgG1.1 (antibody) heavy: QVQLVESGGGVVQPGRSLRLSCAASGFTFSSYGMHWVRQAPGKGLEWVAVIWYEGSNKYYADSVKGRFTISRDNSKNTLYLQMNSLRAEDTAVYYCARGGSMVRGDYYYGMDVWGQGTTVTVSSASTKGPSVFPLAPCSRSTSESTAALGCLVKDYFPEPVTVSWNSGALTSGVHTFPAVLQSSGLYSLSSVVTVPSSNFGTQTYTCNVDHKPSNTKVDKTVERKCCVECPPCPAPPVAGPSVFLFPPKPKDTLMISRTPEVTCVVVDVSHEDPEVKFNWYVDGVEVHNAKTKPREEQYNSTYRVVSVLTVLHQDWLNGKEYKCKVSNKALPSSIEKTISKAKGQPREPQVYTLPPSREEMTKNQVSLTCLVKGFYPSDIAVEWESNGQPENNYKTTPPVLDSDGSFFLYSKLTVDKSRWQQGNVFSCSVMHEALHNHYTQKSLSLSPG light: not shown
0.277	anti-GITR-IgG2 (antibody) heavy: QVQLVESGGGVVQPGRSLRLSCAASGFTFSSYGMHWVRQAPGKGLEWVAVIWYEGSNKYYADSVKGRFTISRDNSKNTLYLQMNSLRAEDTAVYYCARGGSMVRGDYYYGMDVWGQGTTVTVSSASTKGPSVFPLAPCSRSTSESTAALGCLVKDYFPEPVTVSWNSGALTSGVHTFPAVLQSSGLYSLSSVVTVPSSNFGTQTYTCNVDHKPSNTKVDKTVERKCCVECPPCPAPPVAGPSVFLFPPKPKDTLMISRTPEVTCVVVDVSHEDPEVQFNWYVDGVEVHNAKTKPREEQFNSTFRVVSVLTVVHQDWLNGKEYKCKVSNKGLPAPIEKTISKTKGQPREPQVYTLPPSREEMTKNQVSLTCLVKGFYPSDIAVEWESNGQPENNYKTTPPMLDSDGSFFLYSKLTVDKSRWQQGNVFSCSVMHEALHNHYTQKSLSLSPGK light: not shown
